Measured values taken from patent US20210403527A1.

What was measured:
[1] = target: NY-ESO-1 peptide on HLA-A*02:01 (human); experiment: AP-1 luciferase reporter; Jurkat J.RT3.T3.5 with CD8A/B; HLA-A2+ 293T cells pulsed with 100 uM NY-ESO-1 peptide; full-length, on cells
[2] = target: composite TCR 001 (human variable domains, mouse constant domains) (mouse) (UniProt P01849); experiment: Flow cytometry, dextramer against CD8a, sorted T cells expressing composite TCR 001 after 12 days of post-sort expansion, left panel
[3] = target: HLA-A2/NY-ESO-1 (157-165) complex on cells (human); experiment: cell-based or functional assay

Sequence of composite TCR 001 (human variable domains, mouse constant domains) (mouse) (P01849 other isoform, or with tags, fused parts or gaps, chain 1 of 2): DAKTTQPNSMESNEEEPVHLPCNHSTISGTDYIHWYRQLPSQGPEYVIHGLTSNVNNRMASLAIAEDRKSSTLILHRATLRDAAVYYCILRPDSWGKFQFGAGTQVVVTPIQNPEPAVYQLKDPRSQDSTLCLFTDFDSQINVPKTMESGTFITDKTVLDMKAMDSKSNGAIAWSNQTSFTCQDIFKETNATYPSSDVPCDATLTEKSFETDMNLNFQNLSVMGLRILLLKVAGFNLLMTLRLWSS
Sequence of composite TCR 001 (human variable domains, mouse constant domains) (mouse) (P01852 other isoform, or with tags, fused parts or gaps, chain 2 of 2, further chain): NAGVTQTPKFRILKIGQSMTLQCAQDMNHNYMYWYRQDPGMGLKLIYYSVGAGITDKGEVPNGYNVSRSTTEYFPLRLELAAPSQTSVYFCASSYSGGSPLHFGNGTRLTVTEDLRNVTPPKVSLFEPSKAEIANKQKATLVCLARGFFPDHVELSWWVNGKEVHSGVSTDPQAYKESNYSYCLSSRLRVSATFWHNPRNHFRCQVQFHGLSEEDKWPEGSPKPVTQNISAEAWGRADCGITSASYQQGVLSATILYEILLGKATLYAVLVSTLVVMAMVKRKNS

Substance: 1G4
- signal to noise ratio (RLU with peptide-pulsed APCs / RLU with non-pulsed APCs) [1]: 6.3

Substance: Control Dextramer (peptide-MHC)
- Dex+ CD8+ (share of cells in the gate) [2]: 0.52

Substance: patient-derived NY-ESO-1 specific comparator TCR 1G4
- Signal to Noise (S/N) ratio (RLU to peptide pulsed APCs divided by RLU to non-pulsed APCs), AP-1 luciferase reporter T cells [3]: 6.3
